{
  "source": "patent US6599718B1",
  "about": "“Growth hormone secretagogue related receptors and nucleic acids” (priority 1998, dated 2003)",
  "key": {"[1]": {"molecular_target": "human growth hormone secretagogue related receptor (GHSR-R) (human) (UniProt Q9HB89)", "assay": "cell-based or functional assay"}, "[2]": {"tested_on": "other G-protein coupled receptors", "assay": "Aequorin assay, cells transfected with other G-protein coupled receptors in the same vector", "format": "cell-based", "conditions": "other GPCRs cloned into the same vector"}, "[3]": {"tested_on": "Male rats (Charles River Sprague Dawley)", "assay": "Overnight food intake after ICV (lateral ventricle) injection in rats", "format": "in vivo, rat", "conditions": "10 μg ICV, relative to aCSF vehicle, P<0.01, n=6", "method": "Animals and Diet: Male rats (Charles River Sprague Dawley) weighing 250-350 g were maintained in a temperature and humidity controlled facility with a 12 hour light/dark cycle (4:00 AM lights on). Rats were fed standard rodent ground chow (Purina#7012). Fresh diet was provided daily. Both food and water were supplied ad libitum throughout both the pre- and post-surgery periods.\nICV cannulation: Rats under ketamine/xylazine anesthesia, were stereotaxically implanted in the lateral ventricle with a 26G guide cannula. The guide cannula (Plastics One Roanoke,Va.) was secured with three set screws and dental cement. A dummy internal cannula was placed into the guide cannula to maintain cannula patency. Rats were individually housed in Nalgene metabolism cages and allowed to recover a minimum of seven days before injection with test compounds.\nAcclimation: Beginning the day after surgery, each rat was acclimated to the handling and injection procedure, as well as, the feeding regimen. […] Food intake was measured two hours later and the following morning. […]\nConfirmation of cannula placement: Once the rats were fully recovered from surgery, guide cannula placement was confirmed by evaluating the food intake induced by the injection of 5 μg of hNPY (Peninsula Laboratories, Belmont, Calif.) after a one hour satiation period. Two hour post-injection food intake was recorded for each rat. […]"}, "GHSR-R": {"molecular_target": "T1, GHSR-R (Homo sapiens, UniProt Q9HB89)", "T1 construct": "expressed in transfected cells", "T1 sequence (Q9HB89 24-426 limits assumed)": "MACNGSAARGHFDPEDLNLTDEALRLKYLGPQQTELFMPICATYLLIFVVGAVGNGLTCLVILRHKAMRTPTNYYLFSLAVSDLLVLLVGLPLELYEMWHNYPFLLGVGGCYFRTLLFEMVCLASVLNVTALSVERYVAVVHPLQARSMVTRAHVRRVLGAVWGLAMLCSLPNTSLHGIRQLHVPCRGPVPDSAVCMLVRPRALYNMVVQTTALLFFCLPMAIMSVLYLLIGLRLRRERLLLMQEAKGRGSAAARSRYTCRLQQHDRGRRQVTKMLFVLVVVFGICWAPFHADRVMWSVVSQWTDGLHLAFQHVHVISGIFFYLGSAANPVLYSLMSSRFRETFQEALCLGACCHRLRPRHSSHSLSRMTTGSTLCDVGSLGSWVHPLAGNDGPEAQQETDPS", "assay": "β-lactamase assay in CHO-NFAT-bla cells stably expressing GHSR-R", "format": "cell-based", "conditions": "triplicates, read-out: EC50 of NMU for GHSR-R", "method": "β-lactamase assays were carried out as described previously; Zlokarnik et al., 1998, Science 279:84-88. CH.3xNFAT-bla cells (Aurora Biosciences, San Diego, Calif., USA) stably expressing GHSR-R were maintained at 37° C./5% CO2 in DMEM+10% fetal bovine serum (GIBCO-BRL, Gaithersburg, Md., USA), 1 mM sodium pyruvate, 1 mM non-essential amino acid, 55 μM 2-mecaptoethanol, 250 μg/ml zeocin, 5.0 μg/ml puromycin. Cells were seeded at 7,000 cells/well in 96-well clear bottom black-walled plates two days before assay.\nThe day the assay was performed, growth media was removed from the cells and replaced with 0.05 mL/well of phenol red-free Opti-MEM (GIBCO-BRL, Gaithersburg, Md., USA). Neuromedin U was diluted in Opti-MEM using 5-fold serial dilutions, and added into assay plates in triplicates at 0.05 ml/well. The plates were incubated at 37° C./5% CO2 for 4 hours. […]\nFluorescence was measured at emission wave length of 460 nM and 535 nM using an excitation wave length of 405 nM in a Tecan SpectraFluor Plus fluorescence microplate reader (Tecan Austria, Saltzburg, Austria). The ratio of fluorescence between 460 nM and 535 nM was calculated and plotted using the software GraphPad Prism Version 3.0 (GraphPad Software, Inc., San Diego, Calif., USA)."}, "[4]": {"molecular_target": "T2, human growth hormone secretagogue related receptor (GHSR-R) (human, UniProt Q9HB89 24-426)", "T2 construct": "also called human GHSR-R; FM-3", "T2 sequence": "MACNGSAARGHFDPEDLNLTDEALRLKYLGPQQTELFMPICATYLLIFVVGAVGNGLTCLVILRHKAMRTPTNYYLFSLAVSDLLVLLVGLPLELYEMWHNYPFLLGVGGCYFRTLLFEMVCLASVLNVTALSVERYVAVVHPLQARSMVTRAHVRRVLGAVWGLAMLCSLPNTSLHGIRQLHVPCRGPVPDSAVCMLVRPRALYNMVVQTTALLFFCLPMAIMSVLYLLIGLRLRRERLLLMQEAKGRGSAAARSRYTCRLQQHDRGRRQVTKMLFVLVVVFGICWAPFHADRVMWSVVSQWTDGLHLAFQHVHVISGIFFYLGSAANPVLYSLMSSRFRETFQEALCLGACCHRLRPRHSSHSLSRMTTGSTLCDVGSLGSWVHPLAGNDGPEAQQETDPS", "assay": "radioligand competition against 0.1 nM 125I-labeled rat NMU on membranes of HEK-293/aeq17 cells stably expressing human GHSR-R, filtration", "method": "(§1) All procedures were conducted on ice. Cell pellets were homogenized in a tissue grinder with a PTFE pestle (25 strokes). Crude cell membranes were then isolated by centrifugation of the cell lysate at 13,000×g for 30 minutes. Membrane pellets were resuspended at a protein concentration of 2.8 mg/ml in 50 mM Tris-HCl, pH 7.4, 5 mM MgCl2.\n(§2) After incubation for 1 hour at room temperature, binding reactions were filtered through GC/C filters (Whatman; presoaked for 1 hour in 1% polyethylenimine) on a 48-well cell harvester (Brandel), washed 3×3 ml with ice-cold 50 mM Tris-HCl, pH 7.4 buffer with 10 mM MgCl2. Radioactivity on the filters was quantitated by gamma counting."}, "[5]": {"molecular_target": "T2, human growth hormone secretagogue …", "assay": "radioligand competition on membranes of HEK293 cells stably expressing human GHSR-R (summary of Example 10)", "method": "as §1, §2"}, "[6]": {"molecular_target": "T2, human growth hormone secretagogue …", "assay": "cell-based or functional assay"}},
  "note": "Ends that are not written are not given here.",
  "data": [
    {"molecule": "porcine neuromedin U-8 (porcine NMU-8) (from UniProt P34964 158-165) (peptide)", "values": [
      {"measurement": "EC50, FLIPR intracellular Ca2+ assay, COS-7 cells transiently transfected with GHSR-R", "setting": "[1]", "result": 45, "unit": "nM"},
      {"measurement": "EC50, aequorin bioluminescence assay (Ca2+ mobilization), HEK293aeq/17 cells stably expressing GHSR-R", "setting": "[1]", "result": 2.1, "unit": "nM"}
    ]},
    {"molecule": "neuromedin U (YKVNEYQGPVAPSGGFFLFRPRN; ends and bridges not checked; UniProt P12760 144-166, looked up) [NMU, neuropeptide neuromedin U; rat peptide (Phoenix Pharmaceuticals) in the food intake study]", "values": [
      {"measurement": "response to NMU in cells expressing other G-protein coupled receptors", "setting": "[2]", "result": "did not show any response"},
      {"measurement": "suppression of food intake", "setting": "[3]", "result": 59, "unit": "%"},
      {"measurement": "EC50", "setting": "GHSR-R", "result": "~0.075", "unit": "nM"}
    ]},
    {"molecule": "neuromedin U (NMU), species and length not stated (peptide)", "values": [
      {"measurement": "EC50, beta-lactamase reporter assay in CHO-NFAT-bla cells", "setting": "[1]", "result": 0.075, "unit": "nM"},
      {"measurement": "EC50, beta-lactamase reporter assay in HEK293CRE-bla cells", "setting": "[1]", "result": 3, "unit": "nM"}
    ]},
    {"molecule": "YKVNEYQGPVAPSGGFFLFRPRN-NH2 (peptide, UniProt P12760 144-166, looked up, mature; also called unlabeled rat neuromedin U-25; Neuromedin U-25 (rat))", "note": "[rat neuromedin U-23 (rat NMU-23)]", "values": [
      {"measurement": "IC50", "setting": "[4]", "result": 3.3, "unit": "nM"},
      {"measurement": "IC50", "setting": "[5]", "result": 3, "unit": "nM"},
      {"measurement": "EC50, FLIPR intracellular Ca2+ assay, COS-7 cells transiently transfected with GHSR-R", "setting": "[6]", "result": 55, "unit": "nM"},
      {"measurement": "EC50, aequorin bioluminescence assay (Ca2+ mobilization), HEK293aeq/17 cells stably expressing GHSR-R", "setting": "[6]", "result": 14.1, "unit": "nM"}
    ]}
  ]
}
